Results taken from patent US20210324360.

Target: SUMO-modified granzyme B
Sequence (chain, as listed by the source): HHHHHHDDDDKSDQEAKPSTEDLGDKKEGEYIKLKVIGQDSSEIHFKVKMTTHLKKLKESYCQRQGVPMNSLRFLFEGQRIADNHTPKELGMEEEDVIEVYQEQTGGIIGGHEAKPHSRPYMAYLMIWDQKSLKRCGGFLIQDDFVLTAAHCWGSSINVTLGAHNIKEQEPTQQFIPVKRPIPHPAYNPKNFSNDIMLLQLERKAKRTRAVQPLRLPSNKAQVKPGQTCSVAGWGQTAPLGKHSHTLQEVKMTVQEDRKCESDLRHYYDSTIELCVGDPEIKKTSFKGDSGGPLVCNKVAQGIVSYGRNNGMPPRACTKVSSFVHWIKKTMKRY

B1: Sentrin-specific protease 1 (SENP1) (protein)
chain: MDDIADRMRMDAGEVTLVNHNSVFKTHLLPQTGFPEDQLSLSDQQILSSRQGHLDRSFTCSTRSAAYNPSYYSDNPSSDSFLGSGDLRTFGQSANGQWRNSTPSSSSSLQKSRNSRSLYLETRKTSSGLSNSFAGKSNHHCHVSAYEKSFPIKPVPSPSWSGSCRRSLLSPKKTQRRHVSTAEETVQEEEREIYRQLLQMVTGKQFTIAKPTTHFPLHLSRCLSSSKNTLKDSLFKNGNSCASQIIGSDTSSSGSASILTNQEQLSHSVYSLSSYTPDVAFGSKDSGTLHHPHHHHSVPHQPDNLAASNTQSEGSDSVILLKVKDSQTPTPSSTFFQAELWIKELTSVYDSRARERLRQIEEQKALALQLQNQRLQEREHSVHDSVELHLRVPLEKEIPVTVVQETQKKGHKLTDSEDEFPEITEEMEKEIKNVFRNGNQDEVLSEAFRLTITRKDIQTLNHLNWLNDEIINFYMNMLMERSKEKGLPSVHAFNTFFFTKLKTAGYQAVKRWTKKVDVFSVDILLVPIHLGVHWCLAVVDFRKKNITYYDSMGGINNEACRILLQYLKQESIDKKRKEFDTNGWQLFSKKSQEIPQQMNGSDCGMFACKYADCITKDRPINFTQQHMPYFRKRMVWEILHRKLL
GrB activity (cleavage of Ac-IEPD-pNA, absorbance at 405 nm) and western blot after co-incubation with Mock-transfected or SENP1-overexpressing HEK lysate: SENP1 activates SUMO-GrB
